Literature values as cited in PMC2846211.

Target: DNA polymerase gamma accessory subunit (Homo sapiens) (UniProt Q9UHN1)
Sequence of UniProt Q9UHN1 (Q9UHN1 2-485): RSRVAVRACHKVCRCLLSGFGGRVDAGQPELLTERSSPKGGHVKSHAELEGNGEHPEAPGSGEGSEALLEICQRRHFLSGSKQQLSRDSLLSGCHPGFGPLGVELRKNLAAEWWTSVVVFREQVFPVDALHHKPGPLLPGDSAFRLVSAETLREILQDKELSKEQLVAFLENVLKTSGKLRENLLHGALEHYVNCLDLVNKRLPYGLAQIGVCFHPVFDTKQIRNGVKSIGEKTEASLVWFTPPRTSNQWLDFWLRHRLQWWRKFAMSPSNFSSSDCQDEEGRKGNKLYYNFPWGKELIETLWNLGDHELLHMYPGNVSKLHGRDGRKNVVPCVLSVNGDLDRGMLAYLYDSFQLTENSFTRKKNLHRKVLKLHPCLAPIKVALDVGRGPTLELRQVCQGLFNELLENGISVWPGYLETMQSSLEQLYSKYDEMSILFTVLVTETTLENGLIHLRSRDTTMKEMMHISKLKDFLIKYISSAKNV

Kd: 35 nM
Substance: DNA polymerase gamma catalytic subunit (from UniProt P54098)
